Source: patent publication US20070105759

Target: human MC4 receptor (human), P32245
Test: competition
Settings: modification not given

Sequence of human MC4 receptor (human), P32245 (P32245 whole entry): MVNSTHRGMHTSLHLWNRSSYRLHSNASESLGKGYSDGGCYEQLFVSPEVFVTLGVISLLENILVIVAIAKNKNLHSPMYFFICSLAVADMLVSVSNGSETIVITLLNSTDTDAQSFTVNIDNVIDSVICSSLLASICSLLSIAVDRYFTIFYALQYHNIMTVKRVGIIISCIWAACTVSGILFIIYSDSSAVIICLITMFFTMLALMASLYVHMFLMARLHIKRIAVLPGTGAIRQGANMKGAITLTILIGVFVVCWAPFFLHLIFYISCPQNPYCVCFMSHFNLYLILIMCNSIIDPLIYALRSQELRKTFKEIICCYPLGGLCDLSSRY

B1: Compound 77 (peptide)
chain: YRCEHFRWC
- Ki: 0.41 nM
